Assay results published in paper PMC5016229.

Target: RSV F DS-Cav1 (human respiratory syncytial virus | bacteriophage T4) (UniProt P03420)
Experiment: SEC

RSV F DS-Cav1 (from UniProt P03420 26-109; P03420 137-513) (domain or fragment)
stoichiometry N: 3
